Biological target: T1, Nbp2, Q12163
T1 sequence (Q12163 103-180, looked up): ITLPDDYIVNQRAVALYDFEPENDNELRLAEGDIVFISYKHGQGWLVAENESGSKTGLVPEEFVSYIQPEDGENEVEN
Assay: SPOT array
Settings: median of control spots 357

Row | Binder | SPOT intensity
1 | KKIRLIFTYPSTVGR | 258
2 | RSKRLFPVRPMATAH | 46
3 | SKAKRPKFLLDLQIK | 0

Biological target: Myo3, P36006
Assay: SPOT array
Settings: median of control spots 468

Row | Binder | SPOT intensity
4 | KKIRLIFTYPSTVGR | 41
5 | RSKRLFPVRPMATAH | 2
6 | SKAKRPKFLLDLQIK | 6

Biological target: T2, Pin3, Q06449
T2 sequence (Q06449 53-122, looked up): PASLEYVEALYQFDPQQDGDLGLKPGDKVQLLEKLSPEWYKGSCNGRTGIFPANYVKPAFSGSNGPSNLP
Assay: SPOT array
Settings: median of control spots 2171

Row | Binder | SPOT intensity
7 | KKIRLIFTYPSTVGR | 31
8 | RSKRLFPVRPMATAH | 12
9 | SKAKRPKFLLDLQIK | 4

Biological target: T3, Bzz1-2, P38822
T3 sequence (P38822 568-633, looked up): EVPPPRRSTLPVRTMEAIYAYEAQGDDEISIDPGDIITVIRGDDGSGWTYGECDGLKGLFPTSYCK
Assay: SPOT array
Settings: median of control spots 4538

Row | Binder | SPOT intensity
10 | KKIRLIFTYPSTVGR | 2
11 | RSKRLFPVRPMATAH | 13
12 | SKAKRPKFLLDLQIK | 1

Biological target: T4, Cdc25, P04821
T4 sequence (P04821 50-136, looked up): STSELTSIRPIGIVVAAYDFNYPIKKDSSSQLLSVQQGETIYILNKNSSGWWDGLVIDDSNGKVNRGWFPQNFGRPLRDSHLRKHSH
Assay: SPOT array
Settings: median of control spots 969

Row | Binder | SPOT intensity
13 | KKIRLIFTYPSTVGR | 163
14 | RSKRLFPVRPMATAH | 22
15 | SKAKRPKFLLDLQIK | 26

Biological target: T5, Myo5, Q04439
T5 sequence (Q04439 1072-1160, looked up): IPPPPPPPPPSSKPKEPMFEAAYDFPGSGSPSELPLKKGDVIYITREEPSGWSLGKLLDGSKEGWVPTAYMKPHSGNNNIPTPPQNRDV
Assay: SPOT array
Settings: median of control spots 471

Row | Binder | SPOT intensity
16 | KKIRLIFTYPSTVGR | 12
17 | RSKRLFPVRPMATAH | 2
18 | SKAKRPKFLLDLQIK | 0

Biological target: T6, Sla1-3, P32790
T6 sequence (P32790 344-424, looked up): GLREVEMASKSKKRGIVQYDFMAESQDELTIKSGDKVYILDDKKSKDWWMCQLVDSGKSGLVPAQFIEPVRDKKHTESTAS
Assay: SPOT array
Settings: median of control spots 5475

Row | Binder | SPOT intensity
19 | KKIRLIFTYPSTVGR | 8
20 | RSKRLFPVRPMATAH | 36
21 | SKAKRPKFLLDLQIK | 19

Biological target: T7, Pex13, P80667
T7 sequence (P80667 295-386, looked up): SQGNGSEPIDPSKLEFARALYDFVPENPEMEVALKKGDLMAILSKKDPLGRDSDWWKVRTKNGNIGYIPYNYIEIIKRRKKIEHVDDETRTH
Assay: SPOT array
Settings: median of control spots 1341

Row | Binder | SPOT intensity
22 | KKIRLIFTYPSTVGR | 12
23 | RSKRLFPVRPMATAH | 11
24 | SKAKRPKFLLDLQIK | 5

Biological target: T8, Bud14, P27637
T8 sequence (P27637 247-328, looked up): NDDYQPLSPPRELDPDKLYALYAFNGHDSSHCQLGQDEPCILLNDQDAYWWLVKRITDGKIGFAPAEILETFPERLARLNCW
Assay: SPOT array
Settings: median of control spots 956

Row | Binder | SPOT intensity
25 | KKIRLIFTYPSTVGR | 9
26 | RSKRLFPVRPMATAH | 6
27 | SKAKRPKFLLDLQIK | 6

Biological target: T9, Boi2, P39969
T9 sequence (P39969 32-116, looked up): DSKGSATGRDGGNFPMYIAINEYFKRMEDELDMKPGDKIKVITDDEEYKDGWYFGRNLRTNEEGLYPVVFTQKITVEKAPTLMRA
Assay: SPOT array
Settings: median of control spots 1161

Row | Binder | SPOT intensity
28 | KKIRLIFTYPSTVGR | 13
29 | RSKRLFPVRPMATAH | 0
30 | SKAKRPKFLLDLQIK | 0

Biological target: T10, Hof1, Q05080
T10 sequence (Q05080 590-669, looked up): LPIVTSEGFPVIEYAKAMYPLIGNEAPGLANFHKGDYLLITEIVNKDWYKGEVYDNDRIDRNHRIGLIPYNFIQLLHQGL
Assay: SPOT array
Settings: median of control spots 4086

Row | Binder | SPOT intensity
31 | KKIRLIFTYPSTVGR | 0
32 | RSKRLFPVRPMATAH | 7
33 | SKAKRPKFLLDLQIK | 2

Biological target: Rvs167, P39743
Assay: SPOT array
Settings: median of control spots 2707

Chain of Rvs167, P39743 (P39743 419-482): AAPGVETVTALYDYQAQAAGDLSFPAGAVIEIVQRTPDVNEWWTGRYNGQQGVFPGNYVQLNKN

Row | Binder | SPOT intensity
34 | KKIRLIFTYPSTVGR | 0
35 | RSKRLFPVRPMATAH | 9
36 | SKAKRPKFLLDLQIK | 0

Biological target: Bem1-1, P29366
Assay: SPOT array
Settings: median of control spots 4282

Chain of Bem1-1, P29366 (P29366 55-141): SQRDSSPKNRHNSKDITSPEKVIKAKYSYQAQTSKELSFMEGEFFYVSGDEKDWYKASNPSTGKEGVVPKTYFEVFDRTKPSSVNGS

Row | Binder | SPOT intensity
37 | KKIRLIFTYPSTVGR | 0
38 | RSKRLFPVRPMATAH | 0
39 | SKAKRPKFLLDLQIK | 0

Biological target: T11, Cyk3, Q07533
T11 sequence (Q07533 1-83, looked up): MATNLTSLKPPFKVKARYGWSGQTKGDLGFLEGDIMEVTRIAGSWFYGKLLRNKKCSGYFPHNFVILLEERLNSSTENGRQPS
Assay: SPOT array
Settings: median of control spots 1451

Row | Binder | SPOT intensity
40 | KKIRLIFTYPSTVGR | 10
41 | RSKRLFPVRPMATAH | 0
42 | SKAKRPKFLLDLQIK | 4

Biological target: T12, Lsb1, P53281
T12 sequence (P53281 45-122, looked up): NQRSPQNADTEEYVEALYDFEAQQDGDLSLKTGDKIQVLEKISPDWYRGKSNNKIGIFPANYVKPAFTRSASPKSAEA
Assay: SPOT array
Settings: median of control spots 388

Row | Binder | SPOT intensity
43 | KKIRLIFTYPSTVGR | 50
44 | RSKRLFPVRPMATAH | 5
45 | SKAKRPKFLLDLQIK | 7

Biological target: T13, Sla1-2, P32790
T13 sequence (P32790 60-140, looked up): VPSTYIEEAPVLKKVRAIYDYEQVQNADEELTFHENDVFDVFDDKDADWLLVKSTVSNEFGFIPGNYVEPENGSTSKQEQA
Assay: SPOT array
Settings: median of control spots 712

Row | Binder | SPOT intensity
46 | KKIRLIFTYPSTVGR | 6
47 | RSKRLFPVRPMATAH | 0
48 | SKAKRPKFLLDLQIK | 2

Biological target: T14, Lsb3, P43603
T14 sequence (P43603 385-451, looked up): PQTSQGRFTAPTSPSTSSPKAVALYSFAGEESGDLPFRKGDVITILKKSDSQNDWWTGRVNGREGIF
Assay: SPOT array
Settings: median of control spots 406

Row | Binder | SPOT intensity
49 | KKIRLIFTYPSTVGR | 20
50 | RSKRLFPVRPMATAH | 4
51 | SKAKRPKFLLDLQIK | 2

Biological target: T15, Bbc1, P47068
T15 sequence (P47068 1-78, looked up): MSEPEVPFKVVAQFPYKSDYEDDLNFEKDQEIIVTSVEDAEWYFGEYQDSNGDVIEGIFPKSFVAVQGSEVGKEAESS
Assay: SPOT array
Settings: median of control spots 796

Row | Binder | SPOT intensity
52 | KKIRLIFTYPSTVGR | 277
53 | RSKRLFPVRPMATAH | 49
54 | SKAKRPKFLLDLQIK | 48

Biological target: T16, Boi1, P38041
T16 sequence (P38041 1-86, looked up): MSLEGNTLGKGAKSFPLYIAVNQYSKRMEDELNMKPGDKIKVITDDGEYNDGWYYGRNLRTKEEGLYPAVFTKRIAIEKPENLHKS
Assay: SPOT array
Settings: median of control spots 1162

Row | Binder | SPOT intensity
55 | KKIRLIFTYPSTVGR | 61
56 | RSKRLFPVRPMATAH | 0
57 | SKAKRPKFLLDLQIK | 2

Biological target: T17, Bzz1-1, P38822
T17 sequence (P38822 478-572, looked up): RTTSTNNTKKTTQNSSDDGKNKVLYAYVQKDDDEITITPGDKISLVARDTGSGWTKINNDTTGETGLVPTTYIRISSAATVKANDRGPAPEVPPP
Assay: SPOT array
Settings: median of control spots 4446

Row | Binder | SPOT intensity
58 | KKIRLIFTYPSTVGR | 2
59 | RSKRLFPVRPMATAH | 1
60 | SKAKRPKFLLDLQIK | 1

Biological target: T18, Abp1, P15891
T18 sequence (P15891 535-592, looked up): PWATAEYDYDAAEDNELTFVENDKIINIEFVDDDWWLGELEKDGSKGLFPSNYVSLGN
Assay: SPOT array
Settings: median of control spots 935

Row | Binder | SPOT intensity
61 | KKIRLIFTYPSTVGR | 196
62 | RSKRLFPVRPMATAH | 110
63 | SKAKRPKFLLDLQIK | 78

Biological target: T19, Fus1, P11710
T19 sequence (P11710 432-512, looked up): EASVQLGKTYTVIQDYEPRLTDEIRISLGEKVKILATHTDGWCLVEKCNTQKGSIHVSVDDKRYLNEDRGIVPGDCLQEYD
Assay: SPOT array
Settings: median of control spots 1200

Row | Binder | SPOT intensity
64 | KKIRLIFTYPSTVGR | 73
65 | RSKRLFPVRPMATAH | 17
66 | SKAKRPKFLLDLQIK | 3

Biological target: T20, Lsb4, P32793
T20 sequence (P32793 402-468, looked up): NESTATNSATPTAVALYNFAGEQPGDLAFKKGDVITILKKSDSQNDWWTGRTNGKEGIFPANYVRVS
Assay: SPOT array
Settings: median of control spots 397

Row | Binder | SPOT intensity
67 | KKIRLIFTYPSTVGR | 28
68 | RSKRLFPVRPMATAH | 15
69 | SKAKRPKFLLDLQIK | 5

Biological target: GST
Assay: SPOT array
Settings: median of control spots 978

Row | Binder | SPOT intensity
70 | KKIRLIFTYPSTVGR | 0
71 | RSKRLFPVRPMATAH | 0
72 | SKAKRPKFLLDLQIK | 2

Biological target: T21, Hse1, P38753
T21 sequence (P38753 208-285, looked up): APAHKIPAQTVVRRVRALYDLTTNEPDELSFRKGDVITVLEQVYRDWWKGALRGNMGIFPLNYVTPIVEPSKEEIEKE
Assay: SPOT array
Settings: median of control spots 1727

Row | Binder | SPOT intensity
73 | KKIRLIFTYPSTVGR | 4
74 | RSKRLFPVRPMATAH | 12
75 | SKAKRPKFLLDLQIK | 2

Biological target: Sho1, P40073
Assay: SPOT array
Settings: median of control spots 1148

Chain of Sho1, P40073 (P40073 287-367): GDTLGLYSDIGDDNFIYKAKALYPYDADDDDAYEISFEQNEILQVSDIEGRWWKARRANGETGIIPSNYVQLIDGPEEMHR

Row | Binder | SPOT intensity
76 | KKIRLIFTYPSTVGR | 253
77 | RSKRLFPVRPMATAH | 90
78 | SKAKRPKFLLDLQIK | 114

Biological target: Bem1-2, P29366
Assay: SPOT array
Settings: median of control spots 4347

Chain of Bem1-2, P29366 (P29366 139-227): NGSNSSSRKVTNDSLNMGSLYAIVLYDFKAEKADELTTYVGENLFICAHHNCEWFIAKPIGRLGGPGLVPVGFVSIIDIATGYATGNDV

Row | Binder | SPOT intensity
79 | KKIRLIFTYPSTVGR | 0
80 | RSKRLFPVRPMATAH | 14
81 | SKAKRPKFLLDLQIK | 0
